The text below walks through data of US20100099142.

In the data set the target is Met-hIL-21, Q9HBE4.

Where a chain is given by its changes, count along the chain named. Names may count otherwise.

Chain of Met-hIL-21, Q9HBE4 (Q9HBE4 whole entry, looked up): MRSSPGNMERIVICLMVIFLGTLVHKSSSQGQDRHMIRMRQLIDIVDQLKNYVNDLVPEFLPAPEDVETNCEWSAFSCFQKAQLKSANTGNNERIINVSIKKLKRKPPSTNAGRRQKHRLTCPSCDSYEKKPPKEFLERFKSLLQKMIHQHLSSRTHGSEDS

B1: hexa-His-Xa-Met-AP M206A, Q233A (protein)
chain: MAISIKTPEDIEKMRVAGRLAAEVLEMIEPYVKPGVSTGELDRICNDYIVNEQHAVSACLGYHGYPKSVCISINEVVCHGIPDDAKLLKDGDIVNIDVTVIKDGFHGDTSKMFIVGKPTIMGERLCRITQESLYLALRMVKPGINLREIGAAIQKFVEAEGFSVVREYCGHGIGRGFHEEPQVLHYDSRETNVVLKPGMTFTIEPAVNAGKKEIRTMKDGWTVKTKDRSLSAAYEHTIVVTDNGCEILTLRKDDTIPAIISHDE
On to B1, for which the “Met-free hIL-21 generated (removal of initiator Met, enzyme activity)” value is recorded as “˜65% Met-free hIL-21”; the “cleavage of Met-hIL-21 in 44 h (enzyme activity)” value was “In 44 h. more than 90% cleavage of Met-hIL-21 could be observed”; the “removal of initiator Methionine, assayed by MALDI-TOF” value is “removal of Methionine from Met-IL21 below detection limits of Met-IL21 could be performed”.

B2: Met-AP (M206A) (protein)
chain: B1 chain with A233Q
B2: the “removal of initiator Methionine, assayed by MALDI-TOF” value is given as “removal of Methionine from Met-IL21 below detection limits of Met-IL21 could be performed”.
